Measurements taken from patent publication US20160326240A1.

Target: T1, Rat RGMa-His (rat) (UniProt D4A188)
T1 sequence: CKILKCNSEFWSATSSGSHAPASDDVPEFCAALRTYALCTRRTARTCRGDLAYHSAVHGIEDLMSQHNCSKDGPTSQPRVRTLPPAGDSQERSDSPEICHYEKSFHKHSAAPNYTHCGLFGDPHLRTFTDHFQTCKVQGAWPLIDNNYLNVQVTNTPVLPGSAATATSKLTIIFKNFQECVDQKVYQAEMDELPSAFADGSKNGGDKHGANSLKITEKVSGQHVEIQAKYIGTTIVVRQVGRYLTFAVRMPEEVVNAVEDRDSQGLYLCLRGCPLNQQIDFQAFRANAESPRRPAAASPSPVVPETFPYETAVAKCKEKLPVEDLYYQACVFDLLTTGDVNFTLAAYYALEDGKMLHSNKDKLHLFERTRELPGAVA
Test: BIAcore

B1: AE12-1 (antibody, V domains shown)
VH: EVQLVQSGAEVKKPGASVKVSCKASGYTFTSHGISWVRQAPGQGLDWMGWISPYSGNTNYAQKLQGRVTMTTDTSTSTAYMELSSLRSEDTAVYYCARVGSGPYYYMDVWGQGTLVTVSS
VL: QSALTQPRSVSGSPGQSVTISCTGTSSSVGDSIYVSWYQQHPGKAPKLMLYDVTKRPSGVPDRFSGSKSGNTASLTISGLQAEDEADYYCCSYAGTDTLFGGGTKVTVL
- Kd: 19 nM
- koff: 0.00048 s⁻¹
- kon: 26000 M⁻¹ s⁻¹

B2: AE12-1-V (antibody, V domains shown)
VH: EVQLVQSGAEVKKPGASVKVSCKASGYTFTSHGISWVRQAPGQGLDWMGWISPYSGNTNYAQKLQGRVTMTTDTSTSTAYMELSSLRSEDTAVYYCARVGSGPYYYMDVWGQGTLVTVSS
VL: QSALTQPRSVSGSPGQSVTISCTGTSSSVGDSIYVSWYQQHPGKAPKLMLYDVTKRPSGVPDRFSGSKSGNTASLTISGLQAEDEADYYCVSYAGTDTLFGGGTKVTVL
- Kd: 15 nM
- koff: 0.00032 s⁻¹
- kon: 220000 M⁻¹ s⁻¹

B3: AE12-1-L (antibody, V domains shown)
VH: EVQLVQSGAEVKKPGASVKVSCKASGYTFTSHGISWVRQAPGQGLDWMGWISPYSGNTNYAQKLQGRVTMTTDTSTSTAYMELSSLRSEDTAVYYCARVGSGPYYYMDVWGQGTLVTVSS
VL: QSALTQPRSVSGSPGQSVTISCTGTSSSVGDSIYVSWYQQHPGKAPKLMLYDVTKRPSGVPDRFSGSKSGNTASLTISGLQAEDEADYYCLSYAGTDTLFGGGTKVTVL
- Kd: 12 nM
- koff: 0.00039 s⁻¹
- kon: 32000 M⁻¹ s⁻¹

B4: AE12-1-H (antibody, V domains shown)
VH: EVQLVQSGAEVKKPGASVKVSCKASGYTFTSHGISWVRQAPGQGLDWMGWISPYSGNTNYAQKLQGRVTMTTDTSTSTAYMELSSLRSEDTAVYYCARVGSGPYYYMDVWGQGTLVTVSS
VL: QSALTQPRSVSGSPGQSVTISCTGTSSSVGDSIYVSWYQQHPGKAPKLMLYDVTKRPSGVPDRFSGSKSGNTASLTISGLQAEDEADYYCHSYAGTDTLFGGGTKVTVL
- Kd: 8.6 nM
- koff: 0.00025 s⁻¹
- kon: 29000 M⁻¹ s⁻¹

B5: AE12-1-K (antibody, V domains shown)
VH: EVQLVQSGAEVKKPGASVKVSCKASGYTFTSHGISWVRQAPGQGLDWMGWISPYSGNTNYAQKLQGRVTMTTDTSTSTAYMELSSLRSEDTAVYYCARVGSGPYYYMDVWGQGTLVTVSS
VL: QSALTQPRSVSGSPGQSVTISCTGTSSSVGDSIYVSWYQQHPGKAPKLMLYDVTKRPSGVPDRFSGSKSGNTASLTISGLQAEDEADYYCKSYAGTDTLFGGGTKVTVL
- Kd: 17 nM
- koff: 0.00028 s⁻¹
- kon: 16000 M⁻¹ s⁻¹

B6: AE12-1-Y (antibody, V domains shown)
VH: EVQLVQSGAEVKKPGASVKVSCKASGYTFTSHGISWVRQAPGQGLDWMGWISPYSGNTNYAQKLQGRVTMTTDTSTSTAYMELSSLRSEDTAVYYCARVGSGPYYYMDVWGQGTLVTVSS
VL: QSALTQPRSVSGSPGQSVTISCTGTSSSVGDSIYVSWYQQHPGKAPKLMLYDVTKRPSGVPDRFSGSKSGNTASLTISGLQAEDEADYYCYSYAGTDTLFGGGTKVTVL
- Kd: 5 nM
- koff: 6.9e-05 s⁻¹
- kon: 14000 M⁻¹ s⁻¹

B7: AE12-1-I (antibody, V domains shown)
VH: EVQLVQSGAEVKKPGASVKVSCKASGYTFTSHGISWVRQAPGQGLDWMGWISPYSGNTNYAQKLQGRVTMTTDTSTSTAYMELSSLRSEDTAVYYCARVGSGPYYYMDVWGQGTLVTVSS
VL: QSALTQPRSVSGSPGQSVTISCTGTSSSVGDSIYVSWYQQHPGKAPKLMLYDVTKRPSGVPDRFSGSKSGNTASLTISGLQAEDEADYYCISYAGTDTLFGGGTKVTVL
- Kd: 12 nM
- koff: 0.00032 s⁻¹
- kon: 28000 M⁻¹ s⁻¹

B8: AE12-1-F (antibody, V domains shown)
VH: EVQLVQSGAEVKKPGASVKVSCKASGYTFTSHGISWVRQAPGQGLDWMGWISPYSGNTNYAQKLQGRVTMTTDTSTSTAYMELSSLRSEDTAVYYCARVGSGPYYYMDVWGQGTLVTVSS
VL: QSALTQPRSVSGSPGQSVTISCTGTSSSVGDSIYVSWYQQHPGKAPKLMLYDVTKRPSGVPDRFSGSKSGNTASLTISGLQAEDEADYYCFSYAGTDTLFGGGTKVTVL
- Kd: 5.2 nM
- koff: 0.00014 s⁻¹
- kon: 26000 M⁻¹ s⁻¹
